Here are results for 2 molecules from article PMC4178188, “RIG-I Self-Oligomerization Is Either Dispensable or Very Transient for Signal Transduction”.

In data set [1] the target is T1, RIG-I (hRIG-I) (human, UniProt O95786 1-925).
T1 sequence: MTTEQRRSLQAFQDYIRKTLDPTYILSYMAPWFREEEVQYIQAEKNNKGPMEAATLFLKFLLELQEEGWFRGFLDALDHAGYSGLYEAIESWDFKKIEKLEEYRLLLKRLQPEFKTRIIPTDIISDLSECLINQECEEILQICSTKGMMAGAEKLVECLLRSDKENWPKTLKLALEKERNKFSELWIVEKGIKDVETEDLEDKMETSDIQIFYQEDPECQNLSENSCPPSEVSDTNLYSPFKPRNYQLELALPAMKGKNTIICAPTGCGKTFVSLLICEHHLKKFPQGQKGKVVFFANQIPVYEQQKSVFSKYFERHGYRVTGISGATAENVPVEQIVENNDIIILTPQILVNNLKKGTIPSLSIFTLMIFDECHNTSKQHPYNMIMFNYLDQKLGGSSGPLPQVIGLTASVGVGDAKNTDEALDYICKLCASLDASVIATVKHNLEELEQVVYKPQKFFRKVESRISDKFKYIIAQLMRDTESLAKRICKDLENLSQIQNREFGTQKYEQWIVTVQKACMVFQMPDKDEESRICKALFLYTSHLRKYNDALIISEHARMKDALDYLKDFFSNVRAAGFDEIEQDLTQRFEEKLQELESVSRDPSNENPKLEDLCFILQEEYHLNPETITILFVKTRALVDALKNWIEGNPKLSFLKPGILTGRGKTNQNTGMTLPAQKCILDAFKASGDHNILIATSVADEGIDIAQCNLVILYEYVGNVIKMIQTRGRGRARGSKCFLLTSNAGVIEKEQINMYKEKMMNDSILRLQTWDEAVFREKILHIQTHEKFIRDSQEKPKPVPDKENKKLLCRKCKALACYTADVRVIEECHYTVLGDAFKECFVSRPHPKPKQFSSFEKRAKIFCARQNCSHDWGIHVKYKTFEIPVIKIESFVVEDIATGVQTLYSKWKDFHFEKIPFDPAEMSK
Description: SEC-MALLS; 2 mM ATP analogue; complex 113 kDa, 1:1; SEC-MALLS: 37 mM RIG-I, 40 mM RNA (units as printed), 2 mM ATP analogue, S200 column; buffer, salt, pH and temperature not in the material. As to conditions: protein: recombinant; double-stranded side products or secondary structure possible.

The target in data set [2] is T1, RIG-I (hRIG-I). Description: SEC-MALLS; 2 mM ATP analogue; complex 110 kDa, 1:1. The note with it: protein: recombinant; double-stranded side products or secondary structure possible.

B1: Measles leader 5'ppp-RNA (MeV-L) (ssRNA)
RNA: GGACCAAACAAAGUUGGGUAAGGAUAGAUCAAUCAAUGAUCAUAUUCUAGUACACUUGAAUUC
modifications: 5'-triphosphate
Regarding B1, in the data set with RIG-I (hRIG-I) [1], the binding result is reported as “binds”.

B2: Rabies leader 5'ppp-RNA (RabV-L) (ssRNA)
RNA: GGACGCUUAACAACAAAACCAGAGAAGAAAAAGACAGCGUCAAUUGCAAACGAAAAAUGUGC
modifications: 5'-triphosphate
For B2, in the data set with RIG-I (hRIG-I) [2], the binding result was “binds”.
